From publication PMC9537531, “DNA-delivered antibody cocktail exhibits improved pharmacokinetics and confers prophylactic protection against SARS-CoV-2” (Nature Communications, 2022)
Values joined by “and” are separate entries in the source; they are usually repeats but may differ in a detail not shown here. Equal values may be shown once.

Biological target: T1, SARS-CoV-2 6P spike ectodomain peplomer (USA-WA1/2020; 6P stabilization) (SARS-CoV-2 USA-WA1/2020 (MN985325), stabilised)
T1 construct: also called stabilized spike trimer; spike peplomer
Test: cryo-EM structure
Details: both partners purified

| Binder | stoichiometry N |
| --- | --- |
| 2196 dFab, DNA-encoded Fab obtained from serum-derived DMAb 2196 TM(m3) (Fab, V domains shown, also called dFab 2196; 2196DMAb Fab) VH: QMQLVQSGPEVKKPGTSVKVSCKASGFTFMSSAVQWVRQARGQRLEWIGWIVIGSGNTNYAQKFQERVTITRDMSTSTAYMELSSLRSEDTAVYYCAAPYCSSISCNDGFDIWGQGTMVTVSS VL: not shown | 1 dFab per spike trimer and 2 dFabs per spike trimer and 1 copy per RBD (all three RBDs) |
| 2130 dFab, DNA-encoded Fab obtained from serum-derived DMAb 2130 TM(m3) (Fab, V domains shown, also called dFab 2130) VH: EVQLVESGGGLVKPGGSLRLSCAASGFTFRDVWMSWVRQAPGKGLEWVGRIKSKIDGGTTDYAAPVKGRFTISRDDSKNTLYLQMNSLKTEDTAVYYCTTAGSYYYDTVGPGLPEGKFDYWGQGTLVTVSS VL: not shown | 3 dFabs per spike trimer |
